Experimental data as given in article PMC5297747, “Pnserpin: A Novel Serine Protease Inhibitor from Extremophile Pyrobaculum neutrophilum” (International Journal of Molecular Sciences, 2017).

B1: Pnserpin (natural protein, Pyrobaculum neutrophilum, UniProt B1YBN4 1-393, looked up)
chain: MRLWALLPVTLALVVLLIFIVSLKEASTHSPPTSHTSAPAPLESGSYGDFAVSFYKRIALERLRENLVLSPYSVYKAFAMAYAGAAGETREEIGRVFGFGDDVCALAQAGRGVEEAVAAWVQLGFPLREEYERELSCLGAELRRVDFAERSALVEINRWIEEKTRGYVKDLIPTDYPRSQDIRVVLTSALFFNGSWWPLQFGRIGKREFQGVGPVEFMKLDLGSCVPSLRGRVSADLTVVELRFENTDVAMYVIMPKSLEDYVKGLTYEKLKRDITELPDEIVAVTMPLFTAEFKDSLKKVLIDIGIRSAFDKTRANFTRMSPIRIYIDEVFHGAYIKADEKGVVATAATAVVFVPVCAKVGGMEVVIDRPFLFVLADRRDGTIYFIGHVVKP
B2: subtilisin Carlsberg (enzyme, UniProt P00780 106-379, looked up)
chain: AQTVPYGIPLIKADKVQAQGFKGANVKVAVLDTGIQASHPDLNVVGGASFVAGEAYNTDGNGHGTHVAGTVAALDNTTGVLGVAPSVSLYAVKVLNSSGSGSYSGIVSGIEWATTNGMDVINMSLGGASGSTAMKQAVDNAYAKGVVVVAAAGNSGSSGNTNTIGYPAKYDSVIAVGAVDSNSNRASFSSVGAELEVMAPGAGVYSTYPTNTYATLNGTSMASPHVAGAAALILSKHPNLSASQVRNRLSSTATYLGSSFYYGKGLINVEAAAQ
notes: subtilisin Carlsberg; printed molecular weight 27 kD; also called SUC
B3: proteinase k (enzyme, UniProt P06873 106-384, looked up)
chain: AAQTNAPWGLARISSTSPGTSTYYYDESAGQGSCVYVIDTGIEASHPEFEGRAQMVKTYYYSSRDGNGHGTHCAGTVGSRTYGVAKKTQLFGVKVLDDNGSGQYSTIIAGMDFVASDKNNRNCPKGVVASLSLGGGYSSSVNSAAARLQSSGVMVAVAAGNNNADARNYSPASEPSVCTVGASDRYDRRSSFSNYGSVLDIFGPGTSILSTWIGGSTRSISGTSMATPHVAGLAAYLMTLGKTTAASACRYIADTANKGDLSNIPFGTVNLLAYNNYQA
notes: proteinase K; printed molecular weight 28 kD; also called PRK
B4: PnCHT, chymotrypsin-like serine protease of Pyrobaculum neutrophilum (enzyme, UniProt B1YBJ2 1-289, looked up)
chain: MDLSGLVEKVARSVVGVAARGVGAVGEGFGSAFAIDRGVYATAYHVVAQAGEVALITPEGEVADAVVAAADPAEDLAILYSDLYAVPLSLGSALRLRVGQGVVAVGFPLALLDKPTATFGIVSAVGRSLRAGDRFFEYLVQTDAAINPGNSGGPLVNLSGEAVGVCSAVIAGAQGLGFAVPIDLVRIMYQMVKRYGRYVRPALGVYVVALNKALKALYGLPTDRGLLVVDVVPSSPAEEMGIARGDILTKVDGREVANVFELRLLIGEALIQGRTPRIEVIRGGRRIEL
notes: chymotrypsin-like serine protease of Pyrobaculum neutrophilum, GenBank ACB40794.1; full length gene synthesized and cloned into pET-28a(+); printed molecular weight 36 kD; source: E. coli BL21 (DE3) CodonPlus, purified (nickel-chelating chromatography)

Columns and labels:
subtilisin Carlsberg = target: B2; test: cell-based or functional assay
[1] = target: porcine pancreatic elastase (porcine, UniProt P00772 27-266); test: cell-based or functional assay
proteinase k = target: B3; test: cell-based or functional assay
bovine plasma thrombin = bovine plasma thrombin (bovine); test: cell-based or functional assay
[2] = target: bovine pancreatic trypsin (bovine); test: cell-based or functional assay
[3] = target: B4; test: cell-based or functional assay
Pnserpin [4] = target: B1; test: progress curve of protease inhibition; 40 °C; buffer B (100 mM HEPES-NaOH pH 7.5, 200 mM NaCl, 10 mM CaCl2, 0.01% triton X-100, 0.1% glycerol); 1 mM Suc-AAPF-pNA or MeO-SucAAPV-pNA as substrate; various concentrations of Pnserpin; absorption at 410 nm; kass = kunc × (1 + [S]/KM); settings: both partners purified
Pnserpin [5] = target: B1; test: progress curve of protease inhibition; 80 °C; buffer B; 1 mM Suc-AAPF-pNA as substrate; various concentrations of Pnserpin; absorption at 410 nm; kass = kunc × (1 + [S]/KM); settings: both partners purified

Chain of porcine pancreatic elastase (P00772 27-266): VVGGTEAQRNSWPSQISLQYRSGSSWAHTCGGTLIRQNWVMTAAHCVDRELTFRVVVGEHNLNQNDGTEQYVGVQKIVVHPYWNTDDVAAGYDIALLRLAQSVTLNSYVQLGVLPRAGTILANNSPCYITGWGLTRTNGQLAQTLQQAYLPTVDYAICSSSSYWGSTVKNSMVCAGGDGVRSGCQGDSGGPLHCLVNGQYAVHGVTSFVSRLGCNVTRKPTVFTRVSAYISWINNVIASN
Chain of bovine pancreatic trypsin (bovine) (P00760 24-246): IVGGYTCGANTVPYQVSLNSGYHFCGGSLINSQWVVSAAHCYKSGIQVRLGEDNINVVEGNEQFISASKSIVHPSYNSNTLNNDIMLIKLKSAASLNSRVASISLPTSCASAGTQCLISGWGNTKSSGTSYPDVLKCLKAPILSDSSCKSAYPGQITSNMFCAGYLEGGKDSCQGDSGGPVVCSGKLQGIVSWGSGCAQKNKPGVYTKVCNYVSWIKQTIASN

Binder: B1
stoichiometry of inhibition (SI), incubation at 20 °C; residual protease activity (subtilisin Carlsberg): 10 | stoichiometry of inhibition (SI), incubation at 30 °C; residual protease activity (subtilisin Carlsberg): 8.76 | stoichiometry of inhibition (SI), incubation at 40 °C; residual protease activity (subtilisin Carlsberg): 6.95 | stoichiometry of inhibition (SI), incubation at 50 °C; residual protease activity (subtilisin Carlsberg): 5.34 | stoichiometry of inhibition (SI), incubation at 60 °C; residual protease activity (subtilisin Carlsberg): 3.97 | stoichiometry of inhibition (SI), incubation at 70 °C; residual protease activity (subtilisin Carlsberg): 2.67 | stoichiometry of inhibition (SI), incubation at 20 °C; residual protease activity [1]: 10.1 | stoichiometry of inhibition (SI), incubation at 30 °C; residual protease activity [1]: 9.33 | stoichiometry of inhibition (SI), incubation at 40 °C; residual protease activity [1]: 7.9 | stoichiometry of inhibition (SI), incubation at 50 °C; residual protease activity [1]: 7.41 | stoichiometry of inhibition (SI), incubation at 60 °C; residual protease activity [1]: 4.84 | stoichiometry of inhibition (SI), incubation at 70 °C; residual protease activity [1]: 2.74 | stoichiometry of inhibition (SI), incubation at 20 °C; residual protease activity (proteinase k): 9.99 | stoichiometry of inhibition (SI), incubation at 30 °C; residual protease activity (proteinase k): 7.39 | stoichiometry of inhibition (SI), incubation at 40 °C; residual protease activity (proteinase k): 5.99 | stoichiometry of inhibition (SI), incubation at 50 °C; residual protease activity (proteinase k): 4.69 | stoichiometry of inhibition (SI), incubation at 60 °C; residual protease activity (proteinase k): 2.75 | stoichiometry of inhibition (SI), incubation at 70 °C; residual protease activity (proteinase k): 2.28 | stoichiometry of inhibition (SI), incubation at 20 °C; residual protease activity (bovine plasma thrombin): 21.1 | stoichiometry of inhibition (SI), incubation at 30 °C; residual protease activity (bovine plasma thrombin): 15.2 | stoichiometry of inhibition (SI), incubation at 40 °C; residual protease activity (bovine plasma thrombin): 12.2 | stoichiometry of inhibition (SI), incubation at 50 °C; residual protease activity (bovine plasma thrombin): 9.31 | stoichiometry of inhibition (SI), incubation at 20 °C; residual protease activity [2]: 10.2 | stoichiometry of inhibition (SI), incubation at 30 °C; residual protease activity [2]: 6.14 | stoichiometry of inhibition (SI), incubation at 40 °C; residual protease activity [2]: 5.16 | stoichiometry of inhibition (SI), incubation at 50 °C; residual protease activity [2]: 2.53 | stoichiometry of inhibition (SI), incubation at 20 °C; residual protease activity [3]: 32.7 | stoichiometry of inhibition (SI), incubation at 40 °C; residual protease activity [3]: 23.9 | stoichiometry of inhibition (SI), incubation at 60 °C; residual protease activity [3]: 19.8 | stoichiometry of inhibition (SI), incubation at 80 °C; residual protease activity [3]: 11.3 | stoichiometry of inhibition (SI), incubation at 100 °C; residual protease activity [3]: 6.82

Binder: B2
kon (Pnserpin [4]): 130000 M⁻¹ s⁻¹

Binder: B3
kon (Pnserpin [4]): 198000 M⁻¹ s⁻¹

Binder: B4
kon (Pnserpin [5]): 107000 M⁻¹ s⁻¹ | kon (Pnserpin [4]): 39000 M⁻¹ s⁻¹
